19 molecules from patent US20230002472A1 (NEURACLE GENETICS, published 2023) can be followed below.

B1: GPD1-CKJ 49: glycosylated form of CKJ 49 (PD1 CKJ 49-His tag, expressed in HEK293F) (receptor)
chain: LDSPDRPWNPPTLSPALLVVTEGDDATFTCSFSNTSESFVLNWYRMSPSNQTDKLAAFPEDRSQPGQDSRFRVTQLPNGRDFHMSVVRARRSDSGTYLCGAISLAPKAQIKESLRAELRVTERRAEVPTAHPSPSPKPAGQFQ
notes: Soluble, glycosylated, purified on Ni-NTA; coated on the ELISA plate; also called pMaz-PD1 CKJ 49-His tag; not shown: His tag
B2: PD-1 variant CKJ 41G, S36P/C69G/L114P, displayed on E. coli (receptor)
chain: LDSPDRPWNPPTFSPALLVVTEGDNATFTCSFSNTPESFVLNWYRMSPSNQTDKLAAFPEDRSQPGQDGRFRVTQLPNGRDFHMSVVRARRNDSGTYLCGAISLAPKAQIKESPRAELRVTERRAEVPTAHPSPSPRPAGQFQ
notes: Made by QuikChange PCR on CKJ 41; not shown: NlpA signal peptide / inner membrane anchor of the pMopac12-NlpA-FLAG vector; FLAG tag
B3: PD-1 variant CKJ 41Y, S36P/C69Y/L114P, displayed on E. coli (receptor)
chain: LDSPDRPWNPPTFSPALLVVTEGDNATFTCSFSNTPESFVLNWYRMSPSNQTDKLAAFPEDRSQPGQDYRFRVTQLPNGRDFHMSVVRARRNDSGTYLCGAISLAPKAQIKESPRAELRVTERRAEVPTAHPSPSPRPAGQFQ
notes: as for B2
B4: PD-1_LDSS variant, F13L/N25D/C69S/N92S, displayed on E. coli (receptor)
chain: LDSPDRPWNPPTLSPALLVVTEGDDATFTCSFSNTSESFVLNWYRMSPSNQTDKLAAFPEDRSQPGQDSRFRVTQLPNGRDFHMSVVRARRSDSGTYLCGAISLAPKAQIKESLRAELRVTERRAEVPTAHPSPSPRPAGQFQ
notes: Made by QuikChange PCR on the CKJ 49 vector; not shown: NlpA signal peptide / inner membrane anchor of the pMopac12-NlpA-FLAG vector; FLAG tag
B5: PD-1 variant CKJ 41A, S36P/C69A/L114P, displayed on E. coli (receptor)
chain: LDSPDRPWNPPTFSPALLVVTEGDNATFTCSFSNTPESFVLNWYRMSPSNQTDKLAAFPEDRSQPGQDARFRVTQLPNGRDFHMSVVRARRNDSGTYLCGAISLAPKAQIKESPRAELRVTERRAEVPTAHPSPSPRPAGQFQ
notes: as for B2
B6: PD-1 variant No. 41 (CKJ 41), S36P/C69S/L114P, displayed on E. coli (receptor)
chain: LDSPDRPWNPPTFSPALLVVTEGDNATFTCSFSNTPESFVLNWYRMSPSNQTDKLAAFPEDRSQPGQDSRFRVTQLPNGRDFHMSVVRARRNDSGTYLCGAISLAPKAQIKESPRAELRVTERRAEVPTAHPSPSPRPAGQFQ
notes: not shown: NlpA signal peptide / inner membrane anchor of the pMopac12-NlpA-FLAG vector; FLAG tag
B7: PD-1 variant JY101, N1S/F13I/L17M/S36P/M46I/C69T/G79R/G100V/L114P/A139L, displayed on E. coli (receptor)
chain: SDSPDRPWNPPTISPAMLVVTEGDNATFTCSFSNTPESFVLNWYRISPSNQTDKLAAFPEDRSQPGQDTRFRVTQLPNRRDFHMSVVRARRNDSGTYLCVAISLAPKAQIKESPRAELRVTERRAEVPTAHPSPSPRPLGQFQ
notes: From the secondary library on CKJ 41T; also called APD1-JY 101; not shown: NlpA signal peptide / inner membrane anchor of the pMopac12-NlpA-FLAG vector; FLAG tag
B8: PD-1 variant No. 52 (CKJ 52), F13I/M46I/C69Y, displayed on E. coli (receptor)
chain: LDSPDRPWNPPTISPALLVVTEGDNATFTCSFSNTSESFVLNWYRISPSNQTDKLAAFPEDRSQPGQDYRFRVTQLPNGRDFHMSVVRARRNDSGTYLCGAISLAPKAQIKESLRAELRVTERRAEVPTAHPSPSPRPAGQFQ
notes: as for B6
B9: PD-1 variant No. 45 (CKJ 45), S36P/C69S/K107N/L114P/F142L, displayed on E. coli (receptor)
chain: LDSPDRPWNPPTFSPALLVVTEGDNATFTCSFSNTPESFVLNWYRMSPSNQTDKLAAFPEDRSQPGQDSRFRVTQLPNGRDFHMSVVRARRNDSGTYLCGAISLAPNAQIKESPRAELRVTERRAEVPTAHPSPSPRPAGQLQ
notes: as for B6
B10: PD-1 variant No. 50 (CKJ 50), F13L/N25D/C69S/R88K/N92S/A125S, displayed on E. coli (receptor)
chain: LDSPDRPWNPPTLSPALLVVTEGDDATFTCSFSNTSESFVLNWYRMSPSNQTDKLAAFPEDRSQPGQDSRFRVTQLPNGRDFHMSVVKARRSDSGTYLCGAISLAPKAQIKESLRAELRVTERRSEVPTAHPSPSPRPAGQFQ
notes: as for B6
B11: PD-1 variant No. 49 (CKJ 49), F13L/N25D/C69S/N92S/R137K, displayed on E. coli (receptor)
chain: LDSPDRPWNPPTLSPALLVVTEGDDATFTCSFSNTSESFVLNWYRMSPSNQTDKLAAFPEDRSQPGQDSRFRVTQLPNGRDFHMSVVRARRSDSGTYLCGAISLAPKAQIKESLRAELRVTERRAEVPTAHPSPSPKPAGQFQ
notes: as for B6
B12: PD-1 variant No. 46 (CKJ 46), S36P/C69S/L114P/P132L, displayed on E. coli (receptor)
chain: LDSPDRPWNPPTFSPALLVVTEGDNATFTCSFSNTPESFVLNWYRMSPSNQTDKLAAFPEDRSQPGQDSRFRVTQLPNGRDFHMSVVRARRNDSGTYLCGAISLAPKAQIKESPRAELRVTERRAEVPTAHLSPSPRPAGQFQ
notes: as for B6
B13: PD-1 variant No. 55 (CKJ 55), N25D/C69S/N92S/A101V, displayed on E. coli (receptor)
chain: LDSPDRPWNPPTFSPALLVVTEGDDATFTCSFSNTSESFVLNWYRMSPSNQTDKLAAFPEDRSQPGQDSRFRVTQLPNGRDFHMSVVRARRSDSGTYLCGVISLAPKAQIKESLRAELRVTERRAEVPTAHPSPSPRPAGQFQ
notes: as for B6
B14: PD-1 variant CKJ 41T, S36P/C69T/L114P, displayed on E. coli (receptor)
chain: LDSPDRPWNPPTFSPALLVVTEGDNATFTCSFSNTPESFVLNWYRMSPSNQTDKLAAFPEDRSQPGQDTRFRVTQLPNGRDFHMSVVRARRNDSGTYLCGAISLAPKAQIKESPRAELRVTERRAEVPTAHPSPSPRPAGQFQ
notes: also called APD1-CKJ 41T; pMopac12-NIpA-PD-1 CKJ 41T-FLAG; not shown: NlpA signal peptide / inner membrane anchor of the pMopac12-NlpA-FLAG vector; FLAG tag
B15: PD-1 variant No. 67 (CKJ 67), N34T/S36P/C69S/L114P, displayed on E. coli (receptor)
chain: LDSPDRPWNPPTFSPALLVVTEGDNATFTCSFSTTPESFVLNWYRMSPSNQTDKLAAFPEDRSQPGQDSRFRVTQLPNGRDFHMSVVRARRNDSGTYLCGAISLAPKAQIKESPRAELRVTERRAEVPTAHPSPSPRPAGQFQ
notes: as for B6
B16: PD-1 variant No. 78 (CKJ 78), T12S/S36P/C69S/L114P, displayed on E. coli (receptor)
chain: LDSPDRPWNPPSFSPALLVVTEGDNATFTCSFSNTPESFVLNWYRMSPSNQTDKLAAFPEDRSQPGQDSRFRVTQLPNGRDFHMSVVRARRNDSGTYLCGAISLAPKAQIKESPRAELRVTERRAEVPTAHPSPSPRPAGQFQ
notes: as for B6
B17: PD-1 variant No. 66 (CKJ 66), N9D/N25D/C69S/N92S/A101V, displayed on E. coli (receptor)
chain: LDSPDRPWDPPTFSPALLVVTEGDDATFTCSFSNTSESFVLNWYRMSPSNQTDKLAAFPEDRSQPGQDSRFRVTQLPNGRDFHMSVVRARRSDSGTYLCGVISLAPKAQIKESLRAELRVTERRAEVPTAHPSPSPRPAGQFQ
notes: as for B6
B18: PD-1 variant No. 44 (CKJ 44), F13I/M46I/N50S/C69Y/V127A, displayed on E. coli (receptor)
chain: LDSPDRPWNPPTISPALLVVTEGDNATFTCSFSNTSESFVLNWYRISPSSQTDKLAAFPEDRSQPGQDYRFRVTQLPNGRDFHMSVVRARRNDSGTYLCGAISLAPKAQIKESLRAELRVTERRAEAPTAHPSPSPRPAGQFQ
notes: as for B6
B19: PD-1 variant No. 56 (CKJ 56), S36P/C69S/N92K/L114P/H131R, displayed on E. coli (receptor)
chain: LDSPDRPWNPPTFSPALLVVTEGDNATFTCSFSNTPESFVLNWYRMSPSNQTDKLAAFPEDRSQPGQDSRFRVTQLPNGRDFHMSVVRARRKDSGTYLCGAISLAPKAQIKESPRAELRVTERRAEVPTARPSPSPRPAGQFQ
notes: as for B6

The target of one assay is T1, tetrameric human PD-L1 (PD-L1-streptavidin-His tag) (human, UniProt Q9NZQ7 19-238, Alexa-488 label (labelled form used in Example 3 ELISA and in all flow cytometry)).
T1 construct: range 19-238; Expressed in HEK293F, purified on Ni-NTA; both are kept as one molecule; also called PD-L1 tetramer; tetrameric PD-L1-streptavidin; not shown: GS linker between PD-L1 and streptavidin; streptavidin fused at the C-terminal of PD-L1 to induce tetramerization; His tag
T1 sequence (Q9NZQ7 19-238): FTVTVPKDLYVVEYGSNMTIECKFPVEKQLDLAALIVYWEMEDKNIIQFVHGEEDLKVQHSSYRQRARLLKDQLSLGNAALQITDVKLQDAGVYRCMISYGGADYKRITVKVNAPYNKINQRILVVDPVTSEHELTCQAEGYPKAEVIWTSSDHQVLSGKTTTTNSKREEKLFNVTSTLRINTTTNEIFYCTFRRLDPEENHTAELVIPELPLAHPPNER
Nature of the assay: ELISA, PD-1 protein coated at 200 ng/well, PD-L1 tetramer, anti-streptavidin-HRP. In general terms: ELISA stands for enzyme-linked immunosorbent assay.
In the case of B1, the binding result is on record as “binds”.

The target in a further assay is T1, tetrameric human PD-L1 …. Nature of the assay: flow cytometry of E. coli spheroplasts with tetrameric PD-L1-Alexa488. Background: Flow cytometry measures light scatter and fluorescence of single cells or particles in a stream.
For B2, the binding result is listed as “binds”.

Take B3: the binding result is given as “binds”.

For B4, the binding result is on record as “binds”.

Regarding B5, the binding result is “binds”.

Turning to B6, the binding result is recorded as “binds”.

In the case of B7, the binding result is “binds”.

The target of another assay is T1, tetrameric human PD-L1 …. As to the kind of experiment: flow cytometry of E. coli spheroplasts, 12.5 nM tetrameric PD-L1-Alexa488.
For the molecule B8, the binding result was “binds”.

As for B9, the binding result was “binds”.

Regarding B10, the binding result is recorded as “binds”.

Turning to B11, the binding result is reported as “binds”.

In the case of B12, the binding result is “binds”.

On to B13, for which the binding result is “binds”.

As to B14, the binding result was “binds”.

With B15, the binding result was “binds”.

For B16, the binding result is on record as “binds”.

For B17, the binding result was “binds”.

For B18, the binding result was “binds”.

In the case of B19, the binding result was “binds”.
